Among the data in article PMC3894748 (2013) are Kd values, retold here.

The target in the test is actin (Homo sapiens, UniProt P60709). The experiment in a line: Ca2+-ATPase activity inhibition.

B1: plasma membrane calcium pump (PMCA) (protein)
chain: MTNPSDRVLPANSMAESREGDFGCTVMELRKLMELRSRDALTQINVHYGGVQNLCSRLKTSPVEGLSGNPADLEKRRQVFGHNVIPPKKPKTFLELVWEALQDVTLIILEIAAIISLVLSFYRPAGEENELCGQVATTPEDENEAQAGWIEGAAILFSVIIVVLVTAFNDWSKEKQFRGLQCRIEQEQKFSIIRNGQLIQLPVAEIVVGDIAQVKYGDLLPADGILIQGNDLKIDESSLTGESDHVKKSLDKDPMLLSGTHVMEGSGRMVVTAVGVNSQTGIILTLLGVNEDDEGEKKKKGKKQGVPENRNKAKTQDGVALEIQPLNSQEGIDNEEKDKKAVKVPKKEKSVLQGKLTRLAVQIGKAGLLMSALTVFILILYFVIDNFVINRRPWLPECTPIYIQYFVKFFIIGITVLVVAVPEGLPLAVTISLAYSVKKMMKDNNLVRHLDACETMGNATAICSDKTGTLTMNRMTVVQAYIGGIHYRQIPSPDVFLPKVLDLIVNGISINSAYTSKILPPEKEGGLPRQVGNKTECALLGFVTDLKQDYQAVRNEVPEEKLYKVYTFNSVRKSMSTVIRNPNGGFRMYSKGASEIILRKCNRILDRKGEAVPFKNKDRDDMVRTVIEPMACDGLRTICIAYRDFDDTEPSWDNENEILTELTCIAVVGIEDPVRPEVPDAIAKCKQAGITVRMVTGDNINTARAIATKCGILTPGDDFLCLEGKEFNRLIRNEKGEVEQEKLDKIWPKLRVLARSSPTDKHTLVKGIIDSTVGEHRQVVAVTGDGTNDGPALKKADVGFAMGIAGTDVAKEASDIILTDDNFTSIVKAVMWGRNVYDSISKFLQFQLTVNVVAVIVAFTGACITQDSPLKAVQMLWVNLIMDTFASLALATEPPTESLLKRRPYGRNKPLISRTMMKNILGHAFYQLIVIFILVFAGEKFFDIDSGRKAPLHSPPSQHYTIVFNTFVLMQLFNEINSRKIHGEKNVFSGIYRNIIFCSVVLGTFICQIFIVEFGGKPFSCTSLSLSQWLWCLFIGIGELLWGQFISAIPTRSLKFLKEAGHGTTKEEITKDAEGLDEIDHAEMELRRGQILWFRGLNRIQTQIDVINTFQTGASFKGVLRRQNMGQHLDVKLVPSSSYIKVVKAFHSSLHESIQKPYNQKSIHSFMTHPEFAIEEELPRTPLLDEEEEENPDKASKFGTRVLLLDGEVTPYANTNNNAVDCNQVQLPQSDSSLQSLETSV
B1: binding was characterised by a dissociation constant (Kd) of 680 nM.
